Assay results taken from IntAct's records for PubMed 21673656.

B1: Flagellar motor switch protein FliM (Escherichia coli (strain K12)), P06974 (parent)
chain: MGDSILSQAEIDALLNGDSEVKDEPTASVSGESDIRPYDPNTQRRVVRERLQALEIINERFARHFRMGLFNLLRRSPDITVGAIRIQPYHEFARNLPVPTNLNLIHLKPLRGTGLVVFSPSLVFIAVDNLFGGDGRFPTKVEGREFTHTEQRVINRMLKLALEGYSDAWKAINPLEVEYVRSEMQVKFTNITTSPNDIVVNTPFHVEIGNLTGEFNICLPFSMIEPLRELLVNPPLENSRNEDQNWRDNLVRQVQHSQLELVANFADISLRLSQILKLNPGDVLPIEKPDRIIAHVDGVPVLTSQYGTLNGQYALRIEHLINPILNSLNEEQPK
partner: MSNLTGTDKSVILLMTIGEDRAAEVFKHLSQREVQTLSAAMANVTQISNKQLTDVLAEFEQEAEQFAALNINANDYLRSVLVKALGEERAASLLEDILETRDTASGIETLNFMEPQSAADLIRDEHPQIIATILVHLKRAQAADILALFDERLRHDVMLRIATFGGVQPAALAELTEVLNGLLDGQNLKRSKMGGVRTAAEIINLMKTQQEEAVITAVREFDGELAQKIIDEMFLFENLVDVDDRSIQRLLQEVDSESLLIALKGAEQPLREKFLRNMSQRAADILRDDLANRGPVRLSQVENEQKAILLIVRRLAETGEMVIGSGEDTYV
B2: Flagellar motor switch protein FliG (Escherichia coli (strain K12)), P0ABZ1 (parent)
chain: B1 partner
partner: B1 chain

Variants of: B1
Conditions: with flig_ecoli fliG

Row | effect of a mutation on the interaction | Variant
1 | disrupting interaction | MGDSILSQAEIDALLNGDSEVKDEPTASVSGESDIRPYDPNTQRRVVRERLQALEIINERFARHFRMGLFNLLRRSPDITVGAIRIQPYHEFARNLPVPTNLNLIHLKPLRGTGLVVFSPSLVFIAVDNLFGWDGRFPTKVEGREFTHTEQRVINRMLKLALEGYSDAWKAINPLEVEYVRSEMQVKFTNITTSPNDIVVNTPFHVEIGNLTGEFNICLPFSMIEPLRELLVNPPLENSRNEDQNWRDNLVRQVQHSQLELVANFADISLRLSQILKLNPGDVLPIEKPDRIIAHVDGVPVLTSQYGTLNGQYALRIEHLINPILNSLNEEQPK [G133W]

Variants of: B1
Conditions: with flig_ecoli fliG
Remark: another data set of the same source

Row | effect of a mutation on the interaction | Variant
2 | disrupting interaction | MGDSILSQAEIDALLNGDSEVKDEPTASVSGESDIRPYDPNTQRRVVRERLQALEIINERFARHFRMGLFNLLRRSPDITVGAIRIQPYHEFARNLPVPTNLNLIHLKPLRGTGLVVFSPSLVFIAVDNLFGGDGRFPTKVEGREFTHTEQRVINDMLKLALEGYSDAWKAINPLEVEYVRSEMQVKFTNITTSPNDIVVNTPFHVEIGNLTGEFNICLPFSMIEPLRELLVNPPLENSRNEDQNWRDNLVRQVQHSQLELVANFADISLRLSQILKLNPGDVLPIEKPDRIIAHVDGVPVLTSQYGTLNGQYALRIEHLINPILNSLNEEQPK [R156D]

Variants of: B1
Conditions: with flig_ecoli fliG
Remark: another data set of the same source

Row | effect of a mutation on the interaction | Variant
3 | decreasing interaction | MGDSILSQAEIDALLNGDSEVKDEPTASVSGESDIRPYDPNTQRRVVRERLQALEIINERFARHFRMGLFNLLRRSPDITVGAIRIQPYHEFARNLPVPTNLNLIHLKPLRGTGLVVFSPSLVFIAVDNLFGGDGRFPTKVEGREFTHTEQRDINRMLKLALEGYSDAWKAINPLEVEYVRSEMQVKFTNITTSPNDIVVNTPFHVEIGNLTGEFNICLPFSMIEPLRELLVNPPLENSRNEDQNWRDNLVRQVQHSQLELVANFADISLRLSQILKLNPGDVLPIEKPDRIIAHVDGVPVLTSQYGTLNGQYALRIEHLINPILNSLNEEQPK [V153D]

Variants of: B1
Conditions: with flig_ecoli fliG
Remark: another data set of the same source

Row | effect of a mutation on the interaction | Variant
4 | increasing interaction | MGDSILSQAEIDALLNGDSEVKDEPTASVSGESDIRPYDPNTQRRVVRERLQALEIINERFARHFRMGLFNLLRRSPDITVGAIRIQPYHEFARNLPVPTNLNLIHLKPLRGTGLVVFSPSLVFIAVDNLFGGDGRFPTKVEGREFTHTEQRCINRMLKLALEGYSDAWKAINPLEVEYVRSEMQVKFTNITTSPNDIVVNTPFHVEIGNLTGEFNICLPFSMIEPLRELLVNPPLENSRNEDQNWRDNLVRQVQHSQLELVANFADISLRLSQILKLNPGDVLPIEKPDRIIAHVDGVPVLTSQYGTLNGQYALRIEHLINPILNSLNEEQPK [V153C]

Variants of: B1
Conditions: with flig_ecoli fliG, P0ABZ1

Row | effect of a mutation on the interaction | Variant
5 | increasing interaction | MGDSILSQAEIDALLNGDSEVKDEPTASVSGESDIRPYDPNTQRRVVRERLQALEIINERFARHFRMGLFNLLRRSPDITVGAIRIQPYHEFARNLPVPTNLNLIHLKPLRGTGLVVFSPSLVFIAVDNLCGGDGRFPTKVEGREFTHTEQRVINRMLKLALEGYSDAWKAINPLEVEYVRSEMQVKFTNITTSPNDIVVNTPFHVEIGNLTGEFNICLPFSMIEPLRELLVNPPLENSRNEDQNWRDNLVRQVQHSQLELVANFADISLRLSQILKLNPGDVLPIEKPDRIIAHVDGVPVLTSQYGTLNGQYALRIEHLINPILNSLNEEQPK [F131C]

Variants of: B1
Conditions: with flig_ecoli fliG
Remark: another data set of the same source

Row | effect of a mutation on the interaction | Variant
6 | disrupting interaction | MGDSILSQAEIDALLNGDSEVKDEPTASVSGESDIRPYDPNTQRRVVRERLQALEIINERFARHFRMGLFNLLRRSPDITVGAIRIQPYHEFARNLPVPTNLNLIHLKPLRGTGLVVFSPSLVFIAVDNLDGGDGRFPTKVEGREFTHTEQRVINRMLKLALEGYSDAWKAINPLEVEYVRSEMQVKFTNITTSPNDIVVNTPFHVEIGNLTGEFNICLPFSMIEPLRELLVNPPLENSRNEDQNWRDNLVRQVQHSQLELVANFADISLRLSQILKLNPGDVLPIEKPDRIIAHVDGVPVLTSQYGTLNGQYALRIEHLINPILNSLNEEQPK [F131D]

Variants of: B1
Conditions: with flig_ecoli fliG
Remark: another data set of the same source

Row | effect of a mutation on the interaction | Variant
7 | decreasing interaction | MGDSILSQAEIDALLNGDSEVKDEPTASVSGESDIRPYDPNTQRRVVRERLQALEIINERFARHFRMGLFNLLRRSPDITVGAIRIQPYHEFARNLPVPTNLNLIHLKPLRGTGLVVFSPSLVFIAVDNLFGGDGRFPTKVEGREFTHTEQRVINRMLKEALEGYSDAWKAINPLEVEYVRSEMQVKFTNITTSPNDIVVNTPFHVEIGNLTGEFNICLPFSMIEPLRELLVNPPLENSRNEDQNWRDNLVRQVQHSQLELVANFADISLRLSQILKLNPGDVLPIEKPDRIIAHVDGVPVLTSQYGTLNGQYALRIEHLINPILNSLNEEQPK [L160E]

Variants of: B1
Conditions: with flig_ecoli fliG, P0ABZ1
Remark: another data set of the same source

Row | effect of a mutation on the interaction | Variant
8 | increasing interaction | MGDSILSQAEIDALLNGDSEVKDEPTASVSGESDIRPYDPNTQRRVVRERLQALEIINERFARHFRMGLFNLLRRSPDITVGAIRIQPYHEFARNLPVPTNLNLIHLKPLRGTGLVVFSPSLVFIAVDNLFGGDGRFPTKVEGREFTHCEQRVINRMLKLALEGYSDAWKAINPLEVEYVRSEMQVKFTNITTSPNDIVVNTPFHVEIGNLTGEFNICLPFSMIEPLRELLVNPPLENSRNEDQNWRDNLVRQVQHSQLELVANFADISLRLSQILKLNPGDVLPIEKPDRIIAHVDGVPVLTSQYGTLNGQYALRIEHLINPILNSLNEEQPK [T149C]

Variants of: B1
Conditions: with flig_ecoli fliG
Remark: another data set of the same source

Row | effect of a mutation on the interaction | Variant
9 | decreasing interaction | MGDSILSQAEIDALLNGDSEVKDEPTASVSGESDIRPYDPNTQRRVVRERLQALEIINERFARHFRMGLFNLLRRSPDITVGAIRIQPYHEFARNLPVPTNLNLIHLKPLRGTGLVVFSPSLVFIAVDNLFGGDGRFPTKVEGREFTHDEQRVINRMLKLALEGYSDAWKAINPLEVEYVRSEMQVKFTNITTSPNDIVVNTPFHVEIGNLTGEFNICLPFSMIEPLRELLVNPPLENSRNEDQNWRDNLVRQVQHSQLELVANFADISLRLSQILKLNPGDVLPIEKPDRIIAHVDGVPVLTSQYGTLNGQYALRIEHLINPILNSLNEEQPK [T149D]

Variants of: B2
Conditions: with flim_ecoli fliM

Row | effect of a mutation on the interaction | Variant
10 | disrupting interaction | MSNLTGTDKSVILLMTIGEDRAAEVFKHLSQREVQTLSAAMANVTQISNKQLTDVLAEFEQEAEQFAALNINANDYLRSVLVKALGEERAASLLEDILETRDTASGIETLNFMEPQSAADLIRDEHPQIIATILVHLKRAQAADILALFDERLRHDVMLRIATFGGVQPAALAELTEVLNGLLDGQNLKRSKMGGVRTAAEIINLMKTQQEEAVITAVREFDGEWAQKIIDEMFLFENLVDVDDRSIQRLLQEVDSESLLIALKGAEQPLREKFLRNMSQRAADILRDDLANRGPVRLSQVENEQKAILLIVRRLAETGEMVIGSGEDTYV [L225W]

Variants of: B2
Conditions: with flim_ecoli fliM
Remark: another data set of the same source

Row | effect of a mutation on the interaction | Variant
11 | increasing interaction | MSNLTGTDKSVILLMTIGEDRAAEVFKHLSQREVQTLSAAMANVTQISNKQLTDVLAEFEQEAEQFAALNINANDYLRSVLVKALGEERAASLLEDILETRDTASGIETLNFMEPQSAADLIRDEHPQIIATILVHLKRAQAADILALFDERLRHDVMLRIATFGGVQPAALAELTEVLNGLLDGQNLKRSKMGGVRTAAEIINLMKTQQEEAVITAVREFDGECAQKIIDEMFLFENLVDVDDRSIQRLLQEVDSESLLIALKGAEQPLREKFLRNMSQRAADILRDDLANRGPVRLSQVENEQKAILLIVRRLAETGEMVIGSGEDTYV [L225C]

Variants of: B2
Conditions: with flim_ecoli fliM
Remark: another data set of the same source

Row | effect of a mutation on the interaction | Variant
12 | disrupting interaction | MSNLTGTDKSVILLMTIGEDRAAEVFKHLSQREVQTLSAAMANVTQISNKQLTDVLAEFEQEAEQFAALNINANDYLRSVLVKALGEERAASLLEDILETRDTASGIETLNFMEPQSAADLIRDEHPQIIATILVHLKRAQAADILALFDERLRHDVMLRIATFGGVQPAALAELTEVLNGLLDGQNLKRSKMGGVRTAAEWINLMKTQQEEAVITAVREFDGELAQKIIDEMFLFENLVDVDDRSIQRLLQEVDSESLLIALKGAEQPLREKFLRNMSQRAADILRDDLANRGPVRLSQVENEQKAILLIVRRLAETGEMVIGSGEDTYV [I202W]

Variants of: B2
Conditions: with flim_ecoli fliM, P06974

Row | effect of a mutation on the interaction | Variant
13 | increasing interaction | MSNLTGTDKSVILLMTIGEDRAAEVFKHLSQREVQTLSAAMANVTQISNKQLTDVLAEFEQEAEQFAALNINANDYLRSVLVKALGEERAASLLEDILETRDTASGIETLNFMEPQSAADLIRDEHPQCIATILVHLKRAQAADILALFDERLRHDVMLRIATFGGVQPAALAELTEVLNGLLDGQNLKRSKMGGVRTAAEIINLMKTQQEEAVITAVREFDGELAQKIIDEMFLFENLVDVDDRSIQRLLQEVDSESLLIALKGAEQPLREKFLRNMSQRAADILRDDLANRGPVRLSQVENEQKAILLIVRRLAETGEMVIGSGEDTYV [I129C]

Variants of: B2
Conditions: with flim_ecoli fliM, P06974
Remark: another data set of the same source

Row | effect of a mutation on the interaction | Variant
14 | increasing interaction | MSNLTGTDKSVILLMTIGEDRAAEVFKHLSQREVQTLSAAMANVTQISNKQLTDVLAEFEQEAEQFAALNINANDYLRSVLVKALGEERAASLLEDILETRDTASGIETLNFMEPQSAADLIRDEHPQIIATILVHLKRAQAADILALFDERLRHDVMLRIATFGGVQPAALAELTEVLNGLLDGQNLKRSKMGGVRTAAEIINLCKTQQEEAVITAVREFDGELAQKIIDEMFLFENLVDVDDRSIQRLLQEVDSESLLIALKGAEQPLREKFLRNMSQRAADILRDDLANRGPVRLSQVENEQKAILLIVRRLAETGEMVIGSGEDTYV [M206C]
